A word on the Kd: it is the equilibrium constant for the complex coming apart.

Non-standard residues stand in square brackets, D forms with d. No end group written: not given here. pY = N[C@@H](Cc1ccc(OP(=O)(O)O)cc1)C(=O)O

This assay concerns the target T1, HTP-2 protein (full length) (C. elegans).
T1 construct: HTP-2, HORMA domain protein of the meiotic chromosome axis, C. elegans, full length; also called HTP-2 proteins
The experiment in a line: fluorescence polarisation; 50 nM FITC peptide with various concentrations of HTP-2; 20 mM Tris pH 7.5, 300 mM NaCl, 10% glycerol, 1 mM DTT, 0.1% NP-40; 1 hour at room temperature; 384-well plates; single-site binding model. The following applies: both partners purified. A general note: Polarisation of emitted light reports the rotation of a fluorescent probe.
Take RDSPYGLSQGITKKNKD (also: fluorescein (FITC) conjugated, site not given here) [HIM-3 closure motif peptide, unmodified (wild type), fluorescein-tagged]: the affinity, expressed as Kd, was 5.8 µM.

In turn, RDSP[pY]GLSQGITKKNKD (also: fluorescein (FITC) conjugated, site not given here) [HIM-3 closure motif peptide phosphorylated at Tyr279, fluorescein-tagged] showed a Kd of 16.1 µM. In the case of RDSPYGLAQGITKKNKD (also: fluorescein (FITC) conjugated, site not given here) [HIM-3 closure motif peptide with the S282A substitution, fluorescein-tagged] it was 11.3 µM.
